Biological target: SARS-CoV-2 spike protein on Ramos-S cells (SARS-CoV-2) (UniProt P0DTC2)
Experiment: flow cytometry on cells

Row | Substance | median fluorescence intensity
1 | trACE2-Fc-H429Y (from UniProt Q9BYF1 19-615) (Fc fusion) | 11600
2 | EflACE2-Fc-H429Y (from UniProt Q9BYF1 19-740) (Fc fusion) | 15100
3 | flACE2-Fc-E430G (from UniProt Q9BYF1 19-740) (Fc fusion) | 17300
4 | trACE2-Fc-H429F (from UniProt Q9BYF1 19-615) (Fc fusion) | 16300
5 | EflACE2-Fc-E430G (from UniProt Q9BYF1 19-740) (Fc fusion) | 21000
6 | trACE2-Fc-E430G (from UniProt Q9BYF1 19-615) (Fc fusion) | 16700
7 | flACE2-Fc-H429Y (from UniProt Q9BYF1 19-740) (Fc fusion) | 12500
8 | flACE2-Fc-H429F (from UniProt Q9BYF1 19-740) (Fc fusion) | 16900
9 | EflACE2-Fc-H429F (from UniProt Q9BYF1 19-740) (Fc fusion) | 20500

Source: article PMC9369017
